Measurements published in US20190184025A1.
pKd, pKi: −log10 of the molar value.

Legend:
[1] = target: Rat EphA2, biotinylated (in house) (Rat) (UniProt D3ZBN3); assay: SPR, biotinylated rat EphA2 on streptavidin
[2] = target: Mouse EphA2 (Ecto), C-terminal polyHis (Mouse) (UniProt Q03145); assay: FP competition against Reference Compound C (Study 2)
[3] = target: Human EphA2, biotinylated (in house) (Human) (UniProt P29317); assay: SPR, biotinylated human EphA2 on streptavidin
[4] = target: Mouse EphA2 Fc fusion (Mouse) (UniProt Q03145); assay: SPR, mouse EphA2-Fc captured by anti-human IgG
Mouse EphA2 Fc fusion (Mouse), sequence (Q03145 26-535 limits assumed): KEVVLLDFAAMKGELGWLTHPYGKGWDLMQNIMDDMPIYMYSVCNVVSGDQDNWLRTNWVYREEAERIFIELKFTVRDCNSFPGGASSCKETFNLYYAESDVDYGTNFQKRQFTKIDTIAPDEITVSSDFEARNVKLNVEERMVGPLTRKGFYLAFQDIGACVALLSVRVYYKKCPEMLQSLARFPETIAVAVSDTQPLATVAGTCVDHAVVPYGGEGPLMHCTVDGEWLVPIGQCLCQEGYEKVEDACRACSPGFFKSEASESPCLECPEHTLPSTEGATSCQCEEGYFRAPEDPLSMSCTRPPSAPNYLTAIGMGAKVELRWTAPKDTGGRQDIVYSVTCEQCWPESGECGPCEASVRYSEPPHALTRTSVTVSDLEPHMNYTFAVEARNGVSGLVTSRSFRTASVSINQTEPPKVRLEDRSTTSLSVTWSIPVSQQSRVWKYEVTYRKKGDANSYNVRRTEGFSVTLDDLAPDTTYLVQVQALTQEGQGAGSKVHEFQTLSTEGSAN

Mouse EphA2 (Ecto), C-terminal polyHis (Mouse), sequence (Q03145 26-538): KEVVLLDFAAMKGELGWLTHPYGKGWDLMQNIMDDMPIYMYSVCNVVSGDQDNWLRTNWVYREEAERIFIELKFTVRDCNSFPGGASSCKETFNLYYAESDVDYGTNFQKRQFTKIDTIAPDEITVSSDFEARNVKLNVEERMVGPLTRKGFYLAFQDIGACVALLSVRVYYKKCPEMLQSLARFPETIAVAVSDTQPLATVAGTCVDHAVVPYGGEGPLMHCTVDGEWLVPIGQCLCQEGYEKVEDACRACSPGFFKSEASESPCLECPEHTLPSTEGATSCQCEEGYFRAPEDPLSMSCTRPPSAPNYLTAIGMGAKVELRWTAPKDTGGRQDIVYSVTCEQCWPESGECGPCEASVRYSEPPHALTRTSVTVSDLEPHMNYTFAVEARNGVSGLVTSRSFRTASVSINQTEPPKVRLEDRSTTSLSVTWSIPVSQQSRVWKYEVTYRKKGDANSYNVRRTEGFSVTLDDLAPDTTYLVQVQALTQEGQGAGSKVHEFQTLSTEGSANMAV

For BCY6136 (peptide), the pKd [1] was 8.53, the t1/2 [1] was 12.6 min and the pKi [2] was 8.26. For the same substance, the pKd [3] was 8.93, the t1/2 [3] was 10 min and the pKd [4] was 8.60. For the same substance, the t1/2 [4] was 10.4 min.
